We go through one substance from publication PMC10175746.

In general, stoichiometry N refers to the number of molecules, sites or subunits per partner or assembly.

The experiment deals with pyruvate kinase isoform M2 (PKM2) (mouse (endogenous in Th17 cells)) (UniProt P52480).

pyruvate kinase isoform M2 (PKM2), P52480 1-531 (enzyme; other documents disagree on this pair), sequence (P52480 whole entry, canonical isoform): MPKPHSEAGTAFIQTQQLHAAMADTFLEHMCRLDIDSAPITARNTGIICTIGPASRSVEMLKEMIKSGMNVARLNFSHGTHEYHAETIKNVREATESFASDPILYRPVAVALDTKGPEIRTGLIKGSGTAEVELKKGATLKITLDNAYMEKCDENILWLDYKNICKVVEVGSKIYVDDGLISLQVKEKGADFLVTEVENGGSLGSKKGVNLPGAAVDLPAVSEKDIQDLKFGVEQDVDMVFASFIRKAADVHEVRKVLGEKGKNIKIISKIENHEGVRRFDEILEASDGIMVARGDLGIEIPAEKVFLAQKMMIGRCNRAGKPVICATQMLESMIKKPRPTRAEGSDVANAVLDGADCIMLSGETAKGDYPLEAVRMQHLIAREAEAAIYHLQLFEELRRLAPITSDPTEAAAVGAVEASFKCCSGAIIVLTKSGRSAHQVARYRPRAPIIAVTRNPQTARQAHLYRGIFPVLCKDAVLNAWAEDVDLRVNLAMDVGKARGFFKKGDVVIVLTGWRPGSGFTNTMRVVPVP

Turning to “pyruvate kinase isoform M2 (PKM2), P52480 1-531 (enzyme; other documents disagree on this pair)”, the stoichiometry N is 4.
